Laboratory results reported in patent US20140294861A1 (University of Pennsylvania, published 2014).

What was measured:
[1] = target: T1, human B7-H4 expressed at the cell surface (human, UniProt Q7Z7D3 25-282); assay: cell-based or functional assay
T1 sequence (looked up): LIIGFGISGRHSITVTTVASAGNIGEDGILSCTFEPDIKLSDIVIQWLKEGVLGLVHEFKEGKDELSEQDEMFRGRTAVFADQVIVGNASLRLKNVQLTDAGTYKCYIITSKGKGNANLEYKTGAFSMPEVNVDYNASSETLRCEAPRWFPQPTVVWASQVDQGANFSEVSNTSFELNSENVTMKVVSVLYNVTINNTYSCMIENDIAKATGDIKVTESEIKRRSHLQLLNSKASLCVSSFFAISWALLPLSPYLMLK

[2] = target: T1, human B7-H4 expressed at the cell …; assay: flow cytometry on macrophages
[3] = target: T2, recombinant B7-H4 protein (extracellular domain, IgC+IgV, fused to 6xHIS Tag) (human, UniProt Q7Z7D3 29-259, biotinylated in the capture ELISA (site not stated)); assay: capture ELISA, immobilized scFv, biotinylated rB7-H4, SA-HRP
T2 construct: also called rB7-H4; rhB7-H4
T2 sequence: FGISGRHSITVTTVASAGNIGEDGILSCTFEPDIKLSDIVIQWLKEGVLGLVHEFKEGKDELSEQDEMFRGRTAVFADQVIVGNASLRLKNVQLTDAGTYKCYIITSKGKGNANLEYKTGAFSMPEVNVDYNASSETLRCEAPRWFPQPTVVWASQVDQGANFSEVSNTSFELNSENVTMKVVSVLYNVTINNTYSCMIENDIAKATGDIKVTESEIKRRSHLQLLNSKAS
Protocol: FIG. 6A is a schematic representation of protein-based (FIG. 6B) and cell-based isolation (FIG. 6C) strategies. Protein-based and cell-based isolated anti-B7-H4 scFvs were plastic-immobilized and incubated with serial dilutions of biotinylated recombinant B7-H4 (black diamonds) or irrelevant control antigen (BSA, grey triangles). Protein binding to scFv was detected with SA-HRP. Colorimetric signal was developed with TMB substrate solution, quenched with sulfuric acid and read at 450 nm on a Biotek ELISA reader.
The yeast-display scFv library derived from ovarian cancer patients was first screened by magnetic and flow sorting for anti-B7-H4 scFv using progressively decreasing concentrations of human biotinylated B7-H4 recombinant protein (rhB7-H4). Briefly, the library was enriched magnetically 3 times for scFv that bound to 1 ug/ml biotinylated rhB7-H4, and two times flow sorted with 1 ug/ml and 0.5 ug/ml biotinylated rhB7-H4. Selected yeast-display scFv were flow sorted for c-myc/B7-H4 double positive clones. […] Binding to serial dilutions of biotinylated rB7-H4 or control protein was detected using streptavidin-HRP. Colorimetric signals were developed with TMB substrate solution quenched with sulfuric acid and read at 450 nm on a […] Sequencing of scFv clones 26 and 56 was identified 2 unique clones that were then produced and Ni purified.

B1: anti-B7H4 scFv clone 26 (scFv)
scFv: DIVMTQTPATLSVSPGKRATLSCRASQSVSSNYLAWYQQKPGQAPRLLIYGASRRATGIPDRFSGSGSGTDFTLTISSLQAEDVAVYYCQQYGSSPRTFGQGTKLEIKGGSSRSSSSGGGGSGGGGQVTLKESGAEVKNPGSSVKVSCKASGGTFSSYAISWLRQAPGQGLEWMGWINPNSGGSDYAQRFQGRVTMTRDTSINTVYMELSRLRSDDTAVYYCARVEKRGYYYGMDVWGQGTMVTVSSFEGSEQ
IFN-γ secretion of MART-1 TCR T cells in the presence of B7-H4+ TAMs [1]: 1.5 fold

B2: anti-B7H4 scFv clone 3#54 (scFv)
scFv: RPVLTQPPSAAGTPGQRVTISCSGSSSNIGSNYVYWYQQLPGMAPKLLIYTNNQRPSGVPGRFSGSKSGTSASLAISGLRSEDEADYYCAAWDDSLNGWVFGGGTELTVLGGSSRSSSSGGGGSGGGGQVQLQESGPGLVKPSETLSLTCNVSGRSVSSGFYWSWIRQRPGKGLEWVGSIYRSGLTYYNPSLKSRVTISVDTSKNQFSLKLSSVTAADTAVYYCARATPWYYYGMDVWGQGTTVTVSSFEGSEQ
IFN-γ production of MART-1 TCR T cells in the presence of B7-H4+ TAMs [1]: > 2 fold

B3: anti-B7H4 scFv clone 3#68 (scFv)
scFv: QPGLTQPPSASGTPGQRVTISCSGSSSNIGSNYVYWYQQFPGTAPKLLIYRNNQRPSGVPDRFSGSKSGTSASLAISGLRSEDEADYYCAAWDDSLSVWVFGGGTKVTVLGGSSRSSSSGGSGSGGGGQVTLKESGAEVKNPGSSVKVSCKASGGTFSSYAISWLRQAPGQGLEWMGWINPNSGGSDYAQRFQGRVTMTRDTSINTVYMELSRLRSDDTAVYYCARVEKRGYYYGMDVWGQGTMVTVSSFEGSEQ
IFN-γ production of MART-1 TCR T cells in the presence of B7-H4+ TAMs [1]: > 2 fold

B4: anti-B7H4 scFv clone 56 (scFv)
scFv: QPVLTQSHSVSESPGKTVTITCTGSGGNIATQYVQWYQQRPGSGPTTVIYDDDQRPSGVPDRFTGSIDSSSNSASLTISGLKTEDEADYYCQSYDSTNHGVFGGGAKVTVLGGSSRSSSSGGGGSGGGGQVQLQQWGPGLVKPSETLSLTCTVSGGSISSSSYYWGWIRQPPGKGLEWIGSIYYSGSTYYNPSLKSRVTISVDTSKNQFSLKLSSVTAADTAVYYCARLSKGYSSSWAYSYYGPDAWGQGTMVTVSSFEGSEQ
notes: Human scFv from a yeast-display library, made soluble from the yeast secretion vector p416-BCCP; Soluble scFv was detected through V5 and purified on Ni; also called scFv #56; 56 scFv
binding result [2]: binds
binding result [3]: binds
